# According to the RNAGym collection of RNA variant scans (doi:10.1073/pnas.2313332121):
# B1: TPR t1 (parent)
# chain: GACCAAUCUGCCCUCAGAGCUCGAGAACAUCUUCGGAUGCAGAGGAGGCAGGCUUCGGUGGCGCGAUAGCGCCAACGUCCUCAACCUCCAAUGCAUCCCACCACAUGAUGAUGCCUGAAGAGCCUUGGUUUUUUG
# Variants of: B1
# Test: polymerase ribozyme fitness, log enrichment relative to wild type (log ratio); higher = more active; in vitro selection for triplet polymerase activity
# Procedure, shortened: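 In triplicate, a single round of in vitro selection was run on each mutant library, PCR-built and transcribed, covering one subunit of a heterodimeric triplet polymerase ribozyme. Frozen incubation at −7 °C followed annealing with a biotinylated primer, partner subunit and triplets, and extended constructs were then gel-excised, streptavidin-captured and taken through RT-PCR. Fitness is the logarithm of genotype enrichment over wild-type enrichment, from inverse-variance-weighted replicate averages of Illumina-sequenced inputs and outputs. […] only genotypes with ≥10 input reads and ≥1 read per output were kept.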
row,Variant,polymerase ribozyme fitness (log ratio)
1,C72A C86G C89U,-1.07
2,G69U C114G,-0.996
3,C70U G77A U81C,-1.19
4,C70G A100U,-4.02
5,G71C U78A A118G,-0.642
6,G71U C101G U106G,-3.61
7,G71C G127C,-2.16
8,C70U C102A C124G,-1.09
9,G71A U112C,0.03
10,G71A U112G,-1.07
11,C70A G120C,-0.593
12,G71C C79A C85G G120A,-3.28
13,C72A C124U U131A,1.33
14,C72A A121U,2.22
15,C72A A121C,1.46
16,C72A A121G,1.6
17,G71U A83G A91C U96C G110A,-6.02
18,G71A U81G A83U C124A,-7.19
19,C72A U78A C124A U132C U133A,1.3
20,C70G C97U U116A G117A,-5.25
21,G69U U112G C123G,1.13
22,G69U U133G,0.15
23,G71A U116C G117U,-2.83
24,C70U G71A U130C,-1.13

row,Variant,polymerase ribozyme fitness (log ratio)
1,G71C U92C,-2.76
2,G69U C115A,1
3,G69U C88G,-0.121
4,C72A C102U,-1.48
5,G71A U92G,-3.98
6,G71A U92C,-2.39
7,G71A C85G U126C,-2.15
8,G71A G120C G127A U131G,1.2
9,C70A A83G C85U G113U G117U,-6.04
10,G71U G122A,-0.705
11,C70U G93C,-1.12
12,C70G U106C,-2.51
13,G69C A83U U129A,-1.71
14,C70U C98U U129G,-2.67
15,C72G C85G,-1.98
16,C72G C85A,-1.82
17,C72A C82A U96G A100U C115A,-3.23
18,C72A C86U,-0.17
19,G69U A103C U131C,-1.05
20,G71A A100U,-1.77
21,C70U C114U,-2.88
22,C70G A105U G113A,-6.59
23,C72A G110A U131A,-0.37
24,G69C C98U,-1.79

row,Variant,polymerase ribozyme fitness (log ratio)
1,G71A C79U C98U,-1.99
2,C70U A74C C101U,-0.934
3,C72A G135U,-0.828
4,G71U C73G A90U C114U,-7.06
5,C70A G128A,-3.64
6,G71U C124G U126C,2.04
7,C70U G93C C115U,-3.35
8,G71C G120A,-0.0968
9,G69C G117A,-2.37
10,G71A A84U U112A U131A,-0.0045
11,C72A A75C,-0.344
12,C70A U106G,-4.07
13,G71C U81C A90G,-2.36
14,C70G G117A,-3.54
15,G69C C70A A91C,-7.25
16,C70G C99A,-7.95
17,G71A G135U,-1.5
18,G71U G117A U130C,-1.71
19,G71C A103U C115A G117A,-5.57
20,C70G A74G,-4.02
21,G69C U130A,-1.59
22,G71C U130A,-1.3
23,G71A G127C,-1.54
24,G71A G77C C101G,-2.79

row,Variant,polymerase ribozyme fitness (log ratio)
1,C70U C72A A103U A108G G110A,-6.1
2,C72G C85U C86U,-2.99
3,C70A G110A,-3.53
4,G69C C123G,0.685
5,C70U U131G U133A,-0.369
6,C70G G127C,-3.14
7,G69C C97G C101A G107A U112G U130G,-6.6
8,G71A U106C,-1.36
9,G71A A91G A121U,-0.169
10,G71A U96G C123A,-0.833
11,C70U U130A,-1.04
12,G69U C94U U112C,1.42
13,G71U U132C,-0.492
14,C70U A75U G77U A83U U106A C114U C123G U133G,-6.34
15,G71U C88U U130G U131G,-2.2
16,G69U C94A C101G G120U,-1.15
17,C70A G93A U116C C123A,-5.19
18,G69U G113U,-0.867
19,C70A U81C,-2.67
20,C70U C79U C124U,1
21,C72A C73U,-0.581
22,G69C G110C,-4.54
23,C70U C99U,-3.35
24,C70A G122U,-1.64

row,Variant,polymerase ribozyme fitness (log ratio)
1,G69U C104A U126A,-1.49
2,G71A C85U G128U U131A,-3.17
3,G69U C70G U92C G122A U125A,-3.32
4,C70A U130A,-2.04
5,G69U C72U C114A G128A,-3.08
6,G71A G122A,-1.18
7,G71C A90C,-3.67
8,G71C A90G,-0.94
9,C70U C102G A121G,-5.14
10,C70A C88A,-1.82
11,G71C U112A U133A,0.204
12,G71C U87C,-1.45
13,C70A A121G,0.93
14,C70A A121C,0.356
15,C70A U81A G93A,-3.44
16,G69C G113A,-1.72
17,C70G A121G U131A,-0.0344
18,G69U U78C C102U,0.0221
19,G71C A83U,-1.19
20,G71A C79G,-3.16
21,G71U C82G,-1.17
22,G71A C82G G117U,-3.41
23,G71A C82U C101A,-0.823
24,C72A G93C C114U C115U,-6.52

row,Variant,polymerase ribozyme fitness (log ratio)
1,G69C U78A,-2.44
2,C72A C79A,-0.505
3,G71A G120C,0.139
4,G69C C101A,-2.4
5,G71A C99G A100C C123A,-8.12
6,C70U C79U,0.361
7,C70U C79A,-2.03
8,C70U C79G,-2.8
9,G71C U96C G127A,-3.25
10,C70A A83G C85A C88U,-2.53
11,C70G C79A,-4.41
12,G69U C98U C115A U130A,-1.03
13,G69U C89U,-0.148
14,C70A C97U,-2.23
15,C70U C82A,-1.09
16,G71U U87G,-0.424
17,G71U U87A,-1.3
18,G69U C72G C102U U125G,-1.81
19,G71U A91U U132C,-2.4
20,C70U A95U A111U G120U,-6.23
21,C70G C73U,-2.63
22,G69U C99U,-1.7
23,C72A A83G,-0.951
24,G71U C76A,-5.51

row,Variant,polymerase ribozyme fitness (log ratio)
1,C70U G122A,-0.84
2,G71U C104A,-1.81
3,C70G G120C,-1.8
4,G71A U78A,-0.645
5,G69C U106A C124A G128A,-1.94
6,G71U U112A,1.49
7,G71A U81G G113A C123U,-6.93
8,C70U A103G,-4.3
9,C72A G120A,1.06
10,G69C U116C,-1.92
11,C70G C99A G113A,-6.35
12,G69C U126A,-3.12
13,C70A U132A,-0.853
14,G71C C88G,-1.88
15,G69U C123U,1.98
16,C70A C82A,-1.54
17,G71A C104A,-2.33
18,G71A C104U,-0.49
19,C70A G113C,-3.23
20,C70U G110U G120A U129G,-5.09
21,C70A G71U A75G C99A A121U G127U,-4.8
22,G69U A83U G127A,-1.18
23,G71A C89U,-0.978
